T1: Sc Ycg1 crystallization construct;Sc Brn1 short kleisin loop (Saccharomyces cerevisiae;Saccharomyces …, UniProt Q06680;P38170 6-932;384-529, del499-555|del418-444)
T1 sequence 1: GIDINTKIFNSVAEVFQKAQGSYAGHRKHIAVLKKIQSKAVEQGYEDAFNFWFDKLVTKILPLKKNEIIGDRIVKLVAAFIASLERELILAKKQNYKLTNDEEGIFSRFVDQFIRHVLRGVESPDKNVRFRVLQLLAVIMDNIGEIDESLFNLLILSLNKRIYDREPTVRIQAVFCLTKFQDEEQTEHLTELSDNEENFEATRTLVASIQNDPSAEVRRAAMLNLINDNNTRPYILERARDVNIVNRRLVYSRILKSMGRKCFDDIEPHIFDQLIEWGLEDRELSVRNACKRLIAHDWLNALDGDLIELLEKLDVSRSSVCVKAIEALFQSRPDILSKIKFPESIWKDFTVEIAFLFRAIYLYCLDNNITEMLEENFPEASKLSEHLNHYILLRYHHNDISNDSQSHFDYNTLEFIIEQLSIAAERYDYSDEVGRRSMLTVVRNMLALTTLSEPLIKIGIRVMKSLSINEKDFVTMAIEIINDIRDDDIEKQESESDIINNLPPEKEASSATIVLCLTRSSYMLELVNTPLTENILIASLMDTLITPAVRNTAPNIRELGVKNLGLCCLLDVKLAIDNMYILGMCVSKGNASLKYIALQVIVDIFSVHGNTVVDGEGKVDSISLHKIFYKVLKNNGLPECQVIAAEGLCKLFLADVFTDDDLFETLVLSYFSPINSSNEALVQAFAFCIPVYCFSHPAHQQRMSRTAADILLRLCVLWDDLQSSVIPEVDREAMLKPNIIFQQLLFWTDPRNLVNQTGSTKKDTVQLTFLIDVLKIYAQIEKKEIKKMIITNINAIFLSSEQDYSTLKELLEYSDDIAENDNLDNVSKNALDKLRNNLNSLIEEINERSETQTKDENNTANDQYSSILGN
T1 sequence 2: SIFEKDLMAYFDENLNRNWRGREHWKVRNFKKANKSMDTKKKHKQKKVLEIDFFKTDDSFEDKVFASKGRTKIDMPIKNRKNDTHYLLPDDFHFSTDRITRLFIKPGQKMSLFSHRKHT

T2: Sc Ycg1 crystallization construct;Sc Brn1 384-529 (Saccharomyces cerevisiae;Saccharomyces …, UniProt Q06680;P38170 6-932;384-529, del499-555|)
T2 sequence 1: T1 sequence 1
T2 sequence 2: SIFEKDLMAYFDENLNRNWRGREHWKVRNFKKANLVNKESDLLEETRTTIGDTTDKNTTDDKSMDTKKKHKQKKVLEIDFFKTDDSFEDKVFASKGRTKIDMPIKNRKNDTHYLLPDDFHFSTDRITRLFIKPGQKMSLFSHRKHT

B1: 35-bp dsDNA (dsDNA)
DNA 1: CCTATAGTGAGTCGTTCGATATTACAATTCACTGG
DNA 2: CCAGTGAATTGTAATATCGAACGACTCACTATAGG
B2: 18-bp palindromic dsDNA (dsDNA)
DNA 1: GATGTGTAGCTACACATC
DNA 2: GATGTGTAGCTACACATC

How the values were obtained:
[1] = tested on: Ct Ycg1 24-1006;Ct Brn1 515-634 (Chaetomium thermophilum;Chaetomium thermophilum); assay: ITC; details: 2 mM Mg2+, 25 C; EMSA: 10 mM HEPES-KOH pH 7.5, 125 mM NaCl, 5 mM MgCl2, 1 mM DTT, 30 min, gels at 4 C, 0.2 uM 35-bp or 10 nM 2.1-kb DNA; ITC: 25 mM Tris-HCl pH 7.5, 200 mM …
[2] = tested on: Ct Ycg1 24-1006;Ct Brn1 deltaN 539-634 (Chaetomium thermophilum;Chaetomium thermophilum); assay: EMSA; details: protein conc. at which free DNA is depleted; EMSA: 10 mM HEPES-KOH pH 7.5, 125 mM NaCl, 5 mM MgCl2, 1 mM DTT, 30 min, gels at 4 C, 0.2 uM 35-bp or 10 nM 2.1-kb DNA; ITC: 25 mM Tris-HCl pH 7.5, 200 mM …
[3] = tested on: Ct Ycg1 24-1006;Ct Brn1 515-634 (Chaetomium thermophilum;Chaetomium thermophilum); assay: EMSA; details: protein conc. at which free DNA is depleted; EMSA: 10 mM HEPES-KOH pH 7.5, 125 mM NaCl, 5 mM MgCl2, 1 mM DTT, 30 min, gels at 4 C, 0.2 uM 35-bp or 10 nM 2.1-kb DNA; ITC: 25 mM Tris-HCl pH 7.5, 200 mM …
[4] = tested on: Ct Ycg1 24-1006;Ct Brn1 PhiD 515-634 (Chaetomium thermophilum;Chaetomium thermophilum); assay: EMSA; details: protein conc. at which free DNA is depleted; EMSA: 10 mM HEPES-KOH pH 7.5, 125 mM NaCl, 5 mM MgCl2, 1 mM DTT, 30 min, gels at 4 C, 0.2 uM 35-bp or 10 nM 2.1-kb DNA; ITC: 25 mM Tris-HCl pH 7.5, 200 mM …
[5] = target: Sc Smc2;Sc Smc4;Sc Ycs4;Sc Brn1 (Saccharomyces cerevisiae;Saccharomyces …, UniProt P38989;Q12267;Q06156;P38170 1-1170;1-1418;1-1176;1-754, |||); assay: EMSA; lacks Ycg1; EMSA: 10 mM HEPES-KOH pH 7.5, 125 mM NaCl, 5 mM MgCl2, 1 mM DTT, 30 min, gels at 4 C, 0.2 uM 35-bp or 10 nM 2.1-kb DNA; ITC: 25 mM Tris-HCl pH 7.5, 200 mM NaCl, 2 mM MgCl2, 1 mM BME, 25 C; details: protein: recombinant;recombinant;recombinant;recombinant; tags: ;C-terminal StrepII x3;;C-terminal His12-HA3; copies: 1;1;1;1; label: 5' 6-FAM on strand 1; blunt
Sc Smc2;Sc Smc4;Sc Ycs4;Sc Brn1, sequence (P38989 whole entry, chain 1 of 4): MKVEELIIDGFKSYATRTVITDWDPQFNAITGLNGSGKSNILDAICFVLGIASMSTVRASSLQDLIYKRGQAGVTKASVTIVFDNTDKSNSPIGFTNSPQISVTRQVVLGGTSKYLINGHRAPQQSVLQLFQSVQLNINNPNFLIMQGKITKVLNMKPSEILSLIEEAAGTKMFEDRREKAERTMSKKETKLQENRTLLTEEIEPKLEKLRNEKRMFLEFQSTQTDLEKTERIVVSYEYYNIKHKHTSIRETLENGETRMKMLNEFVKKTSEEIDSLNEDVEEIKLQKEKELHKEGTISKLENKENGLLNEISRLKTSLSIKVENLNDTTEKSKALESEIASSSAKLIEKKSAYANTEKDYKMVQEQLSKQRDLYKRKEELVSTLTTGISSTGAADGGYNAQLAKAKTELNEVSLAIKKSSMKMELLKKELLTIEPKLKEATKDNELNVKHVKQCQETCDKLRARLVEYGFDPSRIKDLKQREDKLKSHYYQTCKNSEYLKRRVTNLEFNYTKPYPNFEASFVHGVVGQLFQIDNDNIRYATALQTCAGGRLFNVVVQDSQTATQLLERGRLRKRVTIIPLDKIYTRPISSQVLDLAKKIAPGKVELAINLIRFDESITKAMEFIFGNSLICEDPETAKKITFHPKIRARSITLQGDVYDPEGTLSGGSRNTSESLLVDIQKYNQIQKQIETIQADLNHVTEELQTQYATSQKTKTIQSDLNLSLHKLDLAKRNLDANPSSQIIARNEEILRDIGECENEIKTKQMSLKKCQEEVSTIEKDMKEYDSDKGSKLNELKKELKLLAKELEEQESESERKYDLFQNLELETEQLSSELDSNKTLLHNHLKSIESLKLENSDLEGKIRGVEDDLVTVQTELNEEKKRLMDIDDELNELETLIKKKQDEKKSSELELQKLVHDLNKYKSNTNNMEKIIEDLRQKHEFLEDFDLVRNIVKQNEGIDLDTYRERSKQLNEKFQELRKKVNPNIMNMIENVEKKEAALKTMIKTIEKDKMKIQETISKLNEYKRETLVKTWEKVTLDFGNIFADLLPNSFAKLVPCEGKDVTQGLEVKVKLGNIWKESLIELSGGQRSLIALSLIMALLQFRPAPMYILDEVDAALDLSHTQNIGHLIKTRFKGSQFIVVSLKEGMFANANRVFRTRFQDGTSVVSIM
Sc Smc2;Sc Smc4;Sc Ycs4;Sc Brn1, sequence (Q12267 whole entry, chain 2 of 4): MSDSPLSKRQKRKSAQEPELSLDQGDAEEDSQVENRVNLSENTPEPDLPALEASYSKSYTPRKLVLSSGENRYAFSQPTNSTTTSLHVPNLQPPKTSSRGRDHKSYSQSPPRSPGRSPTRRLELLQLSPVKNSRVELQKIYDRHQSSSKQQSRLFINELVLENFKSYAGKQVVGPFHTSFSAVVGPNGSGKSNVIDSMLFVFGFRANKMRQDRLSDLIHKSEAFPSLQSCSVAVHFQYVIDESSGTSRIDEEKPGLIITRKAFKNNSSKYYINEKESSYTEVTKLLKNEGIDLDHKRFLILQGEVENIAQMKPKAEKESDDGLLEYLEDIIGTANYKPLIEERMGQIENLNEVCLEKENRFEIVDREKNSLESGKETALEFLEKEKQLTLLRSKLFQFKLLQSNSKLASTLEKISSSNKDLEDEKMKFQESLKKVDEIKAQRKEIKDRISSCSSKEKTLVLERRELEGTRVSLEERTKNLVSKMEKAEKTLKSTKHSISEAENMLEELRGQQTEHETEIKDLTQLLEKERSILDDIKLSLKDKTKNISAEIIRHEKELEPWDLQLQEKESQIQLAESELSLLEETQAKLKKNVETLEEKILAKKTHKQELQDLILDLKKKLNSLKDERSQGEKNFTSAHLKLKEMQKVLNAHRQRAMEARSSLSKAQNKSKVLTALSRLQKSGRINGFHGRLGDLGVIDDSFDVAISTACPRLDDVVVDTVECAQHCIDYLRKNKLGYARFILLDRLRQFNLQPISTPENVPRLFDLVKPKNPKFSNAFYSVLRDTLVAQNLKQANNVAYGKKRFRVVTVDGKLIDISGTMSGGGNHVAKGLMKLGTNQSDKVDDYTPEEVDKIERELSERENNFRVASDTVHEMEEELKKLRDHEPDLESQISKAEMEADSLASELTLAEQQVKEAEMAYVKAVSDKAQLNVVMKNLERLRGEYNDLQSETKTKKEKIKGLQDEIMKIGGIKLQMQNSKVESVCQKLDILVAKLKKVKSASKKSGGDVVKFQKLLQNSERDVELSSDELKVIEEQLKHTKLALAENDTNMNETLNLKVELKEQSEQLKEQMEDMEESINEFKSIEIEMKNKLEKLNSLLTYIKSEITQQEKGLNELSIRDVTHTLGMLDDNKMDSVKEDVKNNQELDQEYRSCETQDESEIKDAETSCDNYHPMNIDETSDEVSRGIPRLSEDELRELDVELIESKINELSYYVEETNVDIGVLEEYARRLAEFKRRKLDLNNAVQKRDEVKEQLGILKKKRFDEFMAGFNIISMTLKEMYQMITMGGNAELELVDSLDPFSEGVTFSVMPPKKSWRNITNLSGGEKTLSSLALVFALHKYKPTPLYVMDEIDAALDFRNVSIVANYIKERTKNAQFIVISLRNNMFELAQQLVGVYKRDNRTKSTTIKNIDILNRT
Sc Smc2;Sc Smc4;Sc Ycs4;Sc Brn1, sequence (Q06156 whole entry, chain 3 of 4): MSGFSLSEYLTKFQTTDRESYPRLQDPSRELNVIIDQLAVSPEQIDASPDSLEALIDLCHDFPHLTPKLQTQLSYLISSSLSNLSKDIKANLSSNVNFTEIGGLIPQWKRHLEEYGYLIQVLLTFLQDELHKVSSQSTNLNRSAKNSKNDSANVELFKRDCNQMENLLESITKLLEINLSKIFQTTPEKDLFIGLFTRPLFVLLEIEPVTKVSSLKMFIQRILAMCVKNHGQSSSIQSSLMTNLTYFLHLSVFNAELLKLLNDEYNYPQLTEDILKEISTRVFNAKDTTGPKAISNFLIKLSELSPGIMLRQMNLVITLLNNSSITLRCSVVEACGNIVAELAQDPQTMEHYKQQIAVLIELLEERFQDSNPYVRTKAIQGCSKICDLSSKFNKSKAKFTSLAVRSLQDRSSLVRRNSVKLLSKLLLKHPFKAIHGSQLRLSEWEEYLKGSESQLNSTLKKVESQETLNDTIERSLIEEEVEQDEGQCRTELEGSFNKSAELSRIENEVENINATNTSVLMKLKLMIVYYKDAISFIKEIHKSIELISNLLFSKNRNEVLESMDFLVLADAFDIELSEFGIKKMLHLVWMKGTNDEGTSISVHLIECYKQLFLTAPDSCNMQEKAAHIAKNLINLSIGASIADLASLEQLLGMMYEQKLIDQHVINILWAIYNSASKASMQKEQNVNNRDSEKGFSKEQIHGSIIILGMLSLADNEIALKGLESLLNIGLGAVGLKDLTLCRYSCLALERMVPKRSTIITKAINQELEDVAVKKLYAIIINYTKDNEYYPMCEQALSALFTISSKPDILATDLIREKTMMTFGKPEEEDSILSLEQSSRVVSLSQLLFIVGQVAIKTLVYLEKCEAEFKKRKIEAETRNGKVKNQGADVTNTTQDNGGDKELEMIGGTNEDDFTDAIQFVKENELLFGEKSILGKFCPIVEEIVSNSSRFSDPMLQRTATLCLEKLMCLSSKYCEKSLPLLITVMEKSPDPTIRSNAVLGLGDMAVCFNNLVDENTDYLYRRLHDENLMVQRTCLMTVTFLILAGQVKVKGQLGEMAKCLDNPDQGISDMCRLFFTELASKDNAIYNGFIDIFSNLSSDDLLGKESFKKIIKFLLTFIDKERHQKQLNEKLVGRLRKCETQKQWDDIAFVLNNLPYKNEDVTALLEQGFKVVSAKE
Sc Smc2;Sc Smc4;Sc Ycs4;Sc Brn1, sequence (P38170 whole entry, chain 4 of 4): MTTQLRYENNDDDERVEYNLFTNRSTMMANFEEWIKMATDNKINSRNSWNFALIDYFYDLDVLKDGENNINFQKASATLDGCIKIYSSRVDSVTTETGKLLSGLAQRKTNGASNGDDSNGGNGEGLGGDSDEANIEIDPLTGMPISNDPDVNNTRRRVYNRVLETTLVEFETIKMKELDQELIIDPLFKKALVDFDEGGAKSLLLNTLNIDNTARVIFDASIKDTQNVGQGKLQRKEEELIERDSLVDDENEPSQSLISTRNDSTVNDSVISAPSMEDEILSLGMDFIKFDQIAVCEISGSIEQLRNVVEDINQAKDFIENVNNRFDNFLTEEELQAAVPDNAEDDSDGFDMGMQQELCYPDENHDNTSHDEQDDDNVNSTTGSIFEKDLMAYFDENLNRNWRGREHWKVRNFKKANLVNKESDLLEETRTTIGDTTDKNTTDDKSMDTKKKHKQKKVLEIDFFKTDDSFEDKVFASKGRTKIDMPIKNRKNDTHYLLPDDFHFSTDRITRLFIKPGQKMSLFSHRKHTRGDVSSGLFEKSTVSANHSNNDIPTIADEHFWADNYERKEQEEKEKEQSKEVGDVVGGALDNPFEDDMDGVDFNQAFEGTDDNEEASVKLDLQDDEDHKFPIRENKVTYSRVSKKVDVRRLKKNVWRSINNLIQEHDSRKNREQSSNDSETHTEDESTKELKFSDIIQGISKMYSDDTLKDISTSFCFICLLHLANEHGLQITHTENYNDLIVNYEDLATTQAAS

[6] = target: Sc Smc2;Sc Smc4;Sc Ycs4;Sc Ycg1;Sc Brn1 BC1/2 (Saccharomyces cerevisiae;Saccharomyces …, UniProt P38989;Q12267;Q06156;Q06680;P38170 1-1170;1-1418;1-1176;1-1035;1-754, ||||K409D;R411D;K414D;K451D;K452D;K454D;K456D;K457D); assay: EMSA; EMSA: 10 mM HEPES-KOH pH 7.5, 125 mM NaCl, 5 mM MgCl2, 1 mM DTT, 30 min, gels at 4 C, 0.2 uM 35-bp or 10 nM 2.1-kb DNA; ITC: 25 mM Tris-HCl pH 7.5, 200 mM NaCl, 2 mM MgCl2, 1 mM BME, 25 C; details: protein: recombinant;recombinant;recombinant;recombinant;recombinant; tags: ;C-terminal StrepII x3;;;C-terminal His12-HA3; copies: 1;1;1;1;1; label: 5' 6-FAM on strand 1; blunt
[7] = target: T1, Sc Ycg1 crystallization construct;Sc …; assay: X-ray crystallography; 5 mM MgSO4; EMSA: 10 mM HEPES-KOH pH 7.5, 125 mM NaCl, 5 mM MgCl2, 1 mM DTT, 30 min, gels at 4 C, 0.2 uM 35-bp or 10 nM 2.1-kb DNA; ITC: 25 mM Tris-HCl pH 7.5, 200 mM NaCl, 2 mM MgCl2, 1 mM BME, 25 C; details: protein: recombinant;recombinant; tags: untagged;N-terminal His6-HRV3C; copies: 1;1; blunt, self-complementary
[8] = target: T2, Sc Ycg1 crystallization construct;Sc …; assay: X-ray crystallography; crystal form I, 2.98 A, 5 mM MgSO4; EMSA: 10 mM HEPES-KOH pH 7.5, 125 mM NaCl, 5 mM MgCl2, 1 mM DTT, 30 min, gels at 4 C, 0.2 uM 35-bp or 10 nM 2.1-kb DNA; ITC: 25 mM Tris-HCl pH 7.5, 200 mM NaCl, 2 mM MgCl2, 1 mM BME, 25 C; details: protein: recombinant;recombinant; tags: untagged;N-terminal His6-HRV3C; copies: 1;1; blunt, self-complementary

| Molecule | binding signal [2] | binding signal [3] | binding signal [4] | other results |
| --- | --- | --- | --- | --- |
| CCTATAGTGAGTCACAATTCACTGG (double strand) [25-bp dsDNA] |  |  |  | Kd [1]: 1700 nM |
| 2.1-kb circular supercoiled plasmid | 83 nM | 21 nM | 83 nM |  |
| CCTATAGTGAGTCGTTCGATATTACAATTCACTGG (double strand) [35-bp dsDNA] | 800 nM | 800 nM | 800 nM |  |
| B1 |  |  |  | binding result [5]: no binding; binding result [6]: no binding |
| B2 |  |  |  | binding result [7]: binds; binding result [8]: binds |
